Laboratory results as given in patent US20220242962A1 (APTEVO RESEARCH AND DEVELOPMENT, published 2022).

Columns and labels:
[1] = target: T1, Full-length Human OX40 (human, UniProt P43489 29-277); test: cell-based or functional assay
T1 sequence: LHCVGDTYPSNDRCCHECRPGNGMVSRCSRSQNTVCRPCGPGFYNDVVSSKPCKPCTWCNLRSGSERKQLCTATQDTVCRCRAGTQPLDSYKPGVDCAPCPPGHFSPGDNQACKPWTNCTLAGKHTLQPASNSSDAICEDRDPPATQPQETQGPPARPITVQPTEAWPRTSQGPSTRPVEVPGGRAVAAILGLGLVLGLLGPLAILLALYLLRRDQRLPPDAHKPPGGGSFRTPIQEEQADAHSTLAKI

[2] = target: Full-length Human 4-1BB (human, UniProt Q07011 24-255); test: cell-based or functional assay
Full-length Human 4-1BB, sequence (Q07011 24-255): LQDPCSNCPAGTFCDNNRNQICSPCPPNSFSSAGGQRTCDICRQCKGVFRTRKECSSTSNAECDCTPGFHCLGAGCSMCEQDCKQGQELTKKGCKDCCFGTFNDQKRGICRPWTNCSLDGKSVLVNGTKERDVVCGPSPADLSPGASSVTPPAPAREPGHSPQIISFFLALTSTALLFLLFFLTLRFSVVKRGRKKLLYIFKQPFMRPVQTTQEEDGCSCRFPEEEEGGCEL

[3] = target: T2, Human OX40 ECD-AFH (human); test: SPR (Biacore 8K), construct captured, monovalent ECD
T2 construct: ECD'; entry includes the C-terminal tags; also called OXF003; Human OX40 ECD-avi-flag-his
T2 chain: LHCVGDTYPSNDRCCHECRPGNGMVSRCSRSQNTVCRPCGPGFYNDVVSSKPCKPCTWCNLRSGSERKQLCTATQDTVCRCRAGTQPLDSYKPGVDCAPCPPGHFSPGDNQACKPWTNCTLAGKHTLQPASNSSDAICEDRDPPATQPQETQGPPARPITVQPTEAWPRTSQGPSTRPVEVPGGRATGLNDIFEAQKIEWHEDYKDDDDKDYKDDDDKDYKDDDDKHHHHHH

[4] = target: T3, Cyno OX40-AFH (cynomolgus monkey); test: as above
T3 construct: entry includes the tags; also called OXF005; cyno OX40 ECD
T3 chain: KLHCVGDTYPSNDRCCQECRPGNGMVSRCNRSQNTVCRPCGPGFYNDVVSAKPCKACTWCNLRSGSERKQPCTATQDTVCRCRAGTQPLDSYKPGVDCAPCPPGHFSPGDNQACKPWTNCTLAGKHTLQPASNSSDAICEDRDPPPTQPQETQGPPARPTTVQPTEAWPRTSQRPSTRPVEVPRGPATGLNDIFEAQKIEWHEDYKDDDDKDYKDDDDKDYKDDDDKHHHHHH

[5] = target: T4, Human 4-1BB ECD-AFH (human); test: as above
T4 construct: entry includes the tags; also called FOB003; HUMAN CD137 ECD-AVI-FLAG-HIS

[6] = target: T5, Cyno 4-1BB ECD-AFH (cynomolgus monkey); test: as above
T5 construct: entry includes the tags; also called FOB004; Cyno CD137 ECD-avi-flag-his
T5 chain: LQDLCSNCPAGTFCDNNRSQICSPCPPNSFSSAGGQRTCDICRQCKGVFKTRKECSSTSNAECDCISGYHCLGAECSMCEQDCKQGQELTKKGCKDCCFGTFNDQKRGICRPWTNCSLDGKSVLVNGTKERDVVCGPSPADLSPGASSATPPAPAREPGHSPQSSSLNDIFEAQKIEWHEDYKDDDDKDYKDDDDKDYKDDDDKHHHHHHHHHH

[7] = target: T6, Fc gamma receptor RIIB/C (human, UniProt P31994 46-217); test: SPR, construct immobilized, receptor injected at 2 uM
T6 construct: soluble SPR analyte
T6 sequence (looked up): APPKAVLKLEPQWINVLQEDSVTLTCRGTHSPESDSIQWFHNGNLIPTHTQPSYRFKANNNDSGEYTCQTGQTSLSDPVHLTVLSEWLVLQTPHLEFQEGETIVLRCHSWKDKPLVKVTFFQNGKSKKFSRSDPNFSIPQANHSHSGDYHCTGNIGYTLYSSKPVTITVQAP
Experimental: Fcγ receptor binding to bispecific proteins was measured by Surface Plasmon Resonance on a Biacore 8K instrument at room temperature. Bispecific proteins with modified Fc regions to reduce binding to Fcγ receptors were directly immobilized on the surface of a CM5 sensor chip to a surface density of 4000 RU. A bispecific ADAPTIR™ protein with a wild type Fc was similarly immobilized to the surface as a positive control and used as a comparator to evaluate the reduction in binding resulting from changes incorporated into the Fc region amino acid sequence. Fcγ receptors (purchased from R&D Systems) were diluted to either 100 nM (FcγRI) or 2 μM (all other Fcγ receptors) in HBS-EP+ buffer before injecting over the surface of the prepared sensor chip at 30 μL/min for 60 seconds. Maximum RU values during association phase of each injection were used to compare the extent of binding of the modified Fc to wild type value and are reported in Table 17 below.
Throughout, for 4-1BB Reporter Assay Max induction: unit not given here.
Throughout, for OX40 Reporter Assay Max induction: unit not given here.

Row | Binder | OX40 Reporter Assay EC50 [1] [nM] | OX40 Reporter Assay Max induction [1] | 4-1BB Reporter Assay EC50 [2] [nM] | 4-1BB Reporter Assay Max induction [2] | Kd [3] [nM] | koff [3] [s⁻¹] | kon [3] [M⁻¹ s⁻¹] | Kd [4] [nM] | koff [4] [s⁻¹] | kon [4] [M⁻¹ s⁻¹] | Kd [5] [nM] | koff [5] [s⁻¹] | kon [5] [M⁻¹ s⁻¹] | Kd [6] [nM] | koff [6] [s⁻¹] | kon [6] [M⁻¹ s⁻¹] | Max RU value during association [7] [RU]
1 | FXX01115 (bispecific antibody, ADAPTIR anti-4-1BB x anti-OX40, pI variant; PAA (del) Fc) EVQLVQSGAEVKKPGASVKVSCKASGYTFTSYWMNWVRQAPGQGLEWMGNIYPSGGSTNYAQKFQGRVTMTVDTSTSTVYMELSSLRSEDTAVYYCASFSDGYYAYAMDYWGQGTLVTVSSGGGGSGGGGSGGGGSGGGGSEIVMTQSPATLSLSPGERATLSCRASQSVSSYLNWYQQKPGQAPRLLIYYASRRHTGIPARFSGSGSGTDFTLTISSLQPEDFAVYYCQQGYNLPYTFGQGTKVEIKEPKSSDKTHTCPPCPAPPAAAPSVFLFPPKPKDTLMISRTPEVTCVVVDVSHEDPEVKFNWYVDGVEVHNAKTKPREEQYNSTYRVVSVLTVLHQDWLNGKEYKCAVSNKALPAPIEKTISKAKGQPREPQVYTLPPSRDELTKNQVSLTCLVKGFYPSDIAVEWESNGQPENNYKTTPPVLDSDGSFFLYSKLTVDKSRWQQGNVFSCSVMHEALHNHYTQKSLSLSPGGGGSPSSYVLTQPPSVSVAPGQTARITCGGNNIGSKSVNWFQQKPGQAPVLVVYDDSGRPSGVPNRFSGSTSGNTATLTISRVEAGDEADYYCQVWDSSSDHVVFGGGTKLTVLGGGGSGGGGSGGGGSGGGGSQVQLVESGGGVVQPGRSLRLSCAASGFTLSYYGMHWVRQAPGKGLEWVAAISHDGSDKYYADSVKGRFTISRDNSKNRLYLQMNSLRAEDTAVYYCSNDQFDPWGQGTLVTVSSR | 0.019 | 6.29e+06 | 0.018 | 1.36e+06 | < 1 | 0.0003 | 980000 | < 1 | 0.00021 | 1.1e+06 | 16 | 0.0041 | 260000 | 72 | 0.0074 | 100000 | 19
2 | FXX01119 (bispecific antibody, ADAPTIR anti-4-1BB x anti-OX40, pI variant; PAA (del) Fc) EVQLVQSGAEVKKPGASVKVSCKASGYTFTSYWMNWVRQAPGQGLEWMGNIYPSGGSTNYAQKFQGRVTMTVDTSTSTVYMELSSLRSEDTAVYYCASFSDGYYAYAMDYWGQGTLVTVSSGGGGSGGGGSGGGGSGGGGSEIVMTQSPATLSLSPGERATLSCRASQSVSSYLNWYQQKPGQAPRLLIYYASRRHTGIPARFSGSGSGTDFTLTISSLQPEDFAVYYCQQGYNLPYTFGQGTKVEIKEPKSSDKTHTCPPCPAPPAAAPSVFLFPPKPKDTLMISRTPEVTCVVVDVSHEDPEVKFNWYVDGVEVHNAKTKPREEQYNSTYRVVSVLTVLHQDWLNGKEYKCAVSNKALPAPIEKTISKAKGQPREPQVYTLPPSRDELTKNQVSLTCLVKGFYPSDIAVEWESNGQPENNYKTTPPVLDSDGSFFLYSKLTVDKSRWQQGNVFSCSVMHEALHNHYTQKSLSLSPGGGGSPSSYVLTQPPSVSVAPGKTARITCGGNNIGSKSVNWFQQKPGQAPVLVVYDDSGRPSGVPNRFSGSTSGNTATLTISRVEAGDEADYYCQVWDSSSDHVVFGGGTKLTVLGGGGSGGGGSGGGGSGGGGSQVQLVESGGGVVQPGRSLRLSCAASGFTLSYYGMHWVRQAPGKGLEWVAAISHDGSDKYYADSVKGRFTISRDNSKNRLYLQMNSLRAEDTAVYYCSNDQFDPWGQGTLVTVSSR | 0.012 | 6.07e+06 | 0.011 | 1.37e+06 | 0.3 | 0.00031 | 920000 | 0.2 | 0.00023 | 1e+06 | 18 | 0.0046 | 260000 | 79 | 0.0075 | 95000 | 22
